This test deals with ribosomal protein L23 (E. coli (endogenous in A19 cell extract)) (UniProt P0ADZ0). Put plainly: cross-linking; zero-length EDC crosslinking of resuspended RNCs (ca. 30 nM) made in WT or Δtig A19 E. coli cell-free system (WT: TF 2–15 nM, DnaK 0.5 µM, DnaJ 0.04 µM, GrpE 0.05 µM), +/- puromycin; low-pH SDS-PAGE of the BODIPY-FL nascent chain and Western blots against L23, L24 and L29; percent crosslinking by ImageJ.
The substance “apoHmp_(1–189) ribosome-bound nascent chain (from UniProt P24232 1-189) (domain or fragment; other documents disagree on this pair)” came in with a % EDC crosslinking of 85% and a normalized % EDC crosslinking (per EDC-reactive residue beyond the ribosomal tunnel core) of 2.8%.

“apoHmp_(1–140) ribosome-bound nascent chain (from UniProt P24232 1-140) (domain or fragment; other documents disagree on this pair)” had a % EDC crosslinking of 92% and a normalized % EDC crosslinking (per EDC-reactive residue beyond the ribosomal tunnel core) of 4.6%.

As to “apoHmp_(1–55) ribosome-bound nascent chain (from UniProt P24232 1-55) (domain or fragment; other documents disagree on this pair)”, the % EDC crosslinking turned out to be 27.4% and the normalized % EDC crosslinking (per EDC-reactive residue beyond the ribosomal tunnel core) was found to be 5.5%.

The values above are taken from PMC11137106.
